Holding throughout (assay): fluorescence polarisation
Background: In fluorescence polarisation assays a small probe gives low polarisation when free and higher when bound to something large.

Assay [1] deals with bivalent ExoS L423A peptide, fluorescently labeled (Pseudomonas aeruginosa) (UniProt Q51451).
For assay [2], the target named is bivalent wild-type ExoS peptide, fluorescently labeled (Pseudomonas aeruginosa).
Assay [3] addresses monovalent ExoS L423A peptide, fluorescently labeled (Pseudomonas aeruginosa) (UniProt Q51451).

For the substance “tobacco 14-3-3 homodimer T14-3-3cΔC (domain or fragment)”, the results for the Kd in assay [1], in assay [2] and in assay [3] were 5.9 µM, 0.0455 µM and 127 µM, respectively.

Source of the values: PMC6154215.
